From article PMC3688593, “Cytokine Receptor-Like Factor 1 (CRLF1) Protects against 6-Hydroxydopamine Toxicity Independent of the gp130/JAK Signaling Pathway” (PLoS ONE, 2013)

Molecular target: the molecule itself
Assay: non-reducing versus reducing SDS-PAGE with immunoblot; proteins precipitated from conditioned media of stable SH-SY5Y lines; about 110 kDa band on non-reducing gels, 55 kDa CRLF1 band on reducing gels; blots for CRLF1 and CLCF1

B1: cytokine receptor-like factor 1 (CRLF1), full-length, untagged (natural protein, UniProt O75462 38-422, looked up)
chain: AHTAVISPQDPTLLIGSSLLATCSVHGDPPGATAEGLYWTLNGRRLPPELSRVLNASTLALALANLNGSRQRSGDNLVCHARDGSILAGSCLYVGLPPEKPVNISCWSKNMKDLTCRWTPGAHGETFLHTNYSLKYKLRWYGQDNTCEEYHTVGPHSCHIPKDLALFTPYEIWVEATNRLGSARSDVLTLDILDVVTTDPPPDVHVSRVGGLEDQLSVRWVSPPALKDFLFQAKYQIRYRVEDSVDWKVVDDVSNQTSCRLAGLKPGTVYFVQVRCNPFGIYGSKKAGIWSEWSHPTAASTPRSERPGPGGGACEPRGGEPSSGPVRRELKQFLGWLKKHAYCSNLSFRLYDQWRAWMQKSHKTRNQDEGILPSGRRGTARGPAR
notes: signal peptide in the construct; cytokine receptor-like factor 1 (CRLF1), untagged full-length open reading frame in pCDH-EF1-MCS-IRES-neo; detected in the conditioned medium as the secreted protein; The 110 kDa band is lost on reduction, so the dimer appears to be disulfide-linked; also called CRLF1-FL; FL
  stoichiometry N: 2
